# Data reported in the supplement of paper PMC9732359.
# ± gives the uncertainty stated by the source.
# Assay: protein stability index of a GFP-peptide fusion (yeast GPS) (PSI 1-4); higher = more stable; sorted into four equal gates, so the index is relative within each strain
# How it was run: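 For each peptide, the protein stability index sums the read frequency in every gate after multiplying it by the gate number. Read frequencies came from plasmids that were PCR-amplified from each gate and Illumina-sequenced, with reads assigned to strains by barcodes. The gates were four equal bins of GFP/Cherry fluorescence ratio applied to mid-log yeast in leucine-free medium carrying a pooled library of tiled 17-residue yeast protein peptides fused downstream of GFP on a Cherry-expressing plasmid.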
Sequence,protein stability index (doa10∆),protein stability index (pdr5∆),protein stability index (san1∆),protein stability index (ubr1∆)
ISNGTINIQKKLEPKEI [SIR4],2.77 ± 0.079,2.89 ± 0.075,2.37 ± 0.089,3 ± 0.1
YASYFPYLLETYANVLI [RPN7],1.57 ± 0.088,1.43 ± 0.062,1.18 ± 0.096,1.08 ± 0.043
MNETLNLKVELKEQSEQ [SMC4],,,2.14 ± 0.29,3.42 ± 0.12
PAGHAGNPTNISSPIVA [YDL088C/ASM4],2.52 ± 0.068,2.71 ± 0.065,2.67 ± 0.064,3.02 ± 0.046
STTTSVNGSTTAGVGST [SIN4],3.06 ± 0.044,2.99 ± 0.048,3.07 ± 0.041,2.85 ± 0.036
TSKQHKRSGHRTAPKSD [RPL18A],3.18 ± 0.23,,3.1 ± 0.14,3.06 ± 0.2
PQTTQMFQSQSQLQPQP [YDL088C/ASM4],2.7 ± 0.052,2.5 ± 0.039,2.65 ± 0.046,2.46 ± 0.03
KQLVEKAELRLAIADSP [ECM29],,3.38 ± 0.29,,3.29 ± 0.16
KGNLLEGKKVMAPYLPG [RPN2],2.14 ± 0.061,1.95 ± 0.042,2.03 ± 0.068,2.14 ± 0.045
TAQEINFKMLVLLATWN [IRR1],1.84 ± 0.039,2.04 ± 0.047,2.14 ± 0.051,1.83 ± 0.031
LLLLSLFKKITNVNPSK [YML103C/NUP188],1.89 ± 0.03,1.9 ± 0.027,2.24 ± 0.038,1.93 ± 0.027
EKVNNNATLTPNDSNDE [SWI1],3.26 ± 0.07,3.14 ± 0.057,3.11 ± 0.063,3.16 ± 0.047
SKDVQQIDYKLESFQAV [RPS7A],2.89 ± 0.053,3.06 ± 0.059,3.08 ± 0.054,3.07 ± 0.038
RRWNKLCTLNDSKGSLY [YGL100W/SEH1],3.31 ± 0.078,3.24 ± 0.072,2.91 ± 0.078,3.1 ± 0.046
SLFHTAVSVANGFMHAG [RPN2],1.18 ± 0.087,1.51 ± 0.077,1.29 ± 0.25,1.57 ± 0.13
QRIIKELSIRFPQYKLT [ARP7],1.9 ± 0.058,1.67 ± 0.089,2.12 ± 0.081,1.7 ± 0.047
IVAALPISEKGLTLSTT [RPP1],2.11 ± 0.087,2.61 ± 0.063,2.65 ± 0.057,2.48 ± 0.094
NNQSKEKADYEDEMMHE [RPN12],2.63 ± 0.074,2.7 ± 0.06,2.67 ± 0.095,2.53 ± 0.052
RLGFFYNDQLYVKEKLE [RPN7],2.56 ± 0.17,3.13 ± 0.19,,3.5 ± 0.087
VQNSTLAQLTSKLIPEV [RPS1B],2.19 ± 0.084,2.73 ± 0.062,2.27 ± 0.12,2.55 ± 0.047
EYDTPALFFDPSLNPIP [PRP8],2.82 ± 0.056,2.87 ± 0.036,2.65 ± 0.048,2.69 ± 0.036
ALIRRDFTLIPRMASVF [CDC53],2.12 ± 0.13,2.39 ± 0.072,2.64 ± 0.16,2.17 ± 0.14
RENIAMLKRFFPGVKGL [SMC1],2.5 ± 0.17,2.49 ± 0.2,2.01 ± 0.13,2.43 ± 0.15
DLKPANIMVTIDGCVKI [SSN3],2.58 ± 0.29,1.83 ± 0.16,,1.69 ± 0.25
KDNAKISNNLALVFAAL [SRP68],2.24 ± 0.051,1.86 ± 0.038,1.97 ± 0.066,2.17 ± 0.04

Sequence,protein stability index (doa10∆),protein stability index (pdr5∆),protein stability index (san1∆),protein stability index (ubr1∆)
PPQQTYHFPIFNKYADP [RPN4],2.52 ± 0.046,2.8 ± 0.042,2.59 ± 0.034,2.65 ± 0.03
ATDISGELRDYIEDFLL [YJR042W/NUP85],3.31 ± 0.1,3.31 ± 0.081,3.22 ± 0.056,3.3 ± 0.041
SVRKFLEIALFKYRKAR [RPO31],2.31 ± 0.12,1.18 ± 0.097,1.36 ± 0.17,1.32 ± 0.15
ISVGESGDRLTRASKVL [RPL11A],,3.08 ± 0.19,,3.4 ± 0.22
VETKLETKVDELRYQSH [DSN1],2.86 ± 0.088,3.22 ± 0.074,3.31 ± 0.058,3.08 ± 0.073
LSHGSLEHVLLVPTASF [FAS1],1.24 ± 0.039,1.4 ± 0.043,1.33 ± 0.079,1.19 ± 0.029
EAQANLLTAKHGMTLRE [RPO21],2.98 ± 0.18,3.11 ± 0.099,3.14 ± 0.063,2.8 ± 0.11
TISVPQIRDVMERFSVL [RRP6],2.58 ± 0.094,2.7 ± 0.097,2.5 ± 0.12,2.68 ± 0.13
FLVLYDVKTAEEASQLI [NUT1],1.45 ± 0.047,1.93 ± 0.077,2.78 ± 0.061,3.01 ± 0.047
IGAGVPSLEVASEYIET [FAS1],3.38 ± 0.15,3.12 ± 0.18,2.18 ± 0.23,
STYRLEDVLSSFYRVEK [SSN2],2.09 ± 0.074,2.34 ± 0.073,1.87 ± 0.1,2.48 ± 0.094
SIPNLFPTDLEIFQLFT [SWI1],2.6 ± 0.14,2.22 ± 0.12,2.27 ± 0.12,3.09 ± 0.19
TFNNQDKGLLPYAIMET [RPO31],1.99 ± 0.067,2.46 ± 0.085,1.44 ± 0.075,1.48 ± 0.058
LKKRYDLSYNFNVHEVP [YMR129W/POM152],2.78 ± 0.05,2.6 ± 0.056,2.7 ± 0.058,2.82 ± 0.042
VDSGSNDAMAGGFTAYG [RPO21],3.26 ± 0.16,,3.37 ± 0.26,
VRNSFPLDEIPVDVDFN [REC8],2.71 ± 0.12,2.33 ± 0.096,2.57 ± 0.078,2.99 ± 0.065
EASTVPWGDYLQLETPA [BRR2],1.42 ± 0.066,2.13 ± 0.16,2.58 ± 0.14,1.53 ± 0.098
KKIREIYRYDEMSNKVL [BRR2],2.92 ± 0.097,3.06 ± 0.13,2.62 ± 0.086,3.08 ± 0.045
DRDALSGWGAVVYIIKK [PUP3],3.12 ± 0.081,2.96 ± 0.063,2.99 ± 0.06,3.13 ± 0.056
RCTKIIKGNGESDETTT [RPT1],3.18 ± 0.14,,3.36 ± 0.038,3.54 ± 0.11
LKRFPKMSVTCNAQPIT [BRR2],2.33 ± 0.066,2.23 ± 0.06,2.02 ± 0.11,1.9 ± 0.037
SFFHQSNMQKSLLPYYH [RPN3],1.66 ± 0.037,1.67 ± 0.041,1.63 ± 0.07,1.9 ± 0.03
MEKDKLKNLLRSNFRVN [SNU114],1.99 ± 0.087,2.45 ± 0.08,2.46 ± 0.13,2.65 ± 0.087
SGEDTNVGLPILKSLKN [YOR098C/NUP1],2.95 ± 0.1,3.16 ± 0.13,2.85 ± 0.069,3.28 ± 0.12
